Data: US10117916B2, “Peptides and combination of peptides for use in immunotherapy against CLL and other cancers” (immatics biotechnologies GmbH, priority 2015, dated 2018)

Biological target: HLA-A*02:01 (Homo sapiens, UniProt P04439, D140Y/D185E/D98H/E176V/E277Q/G131W/G231S/I119V/I121R/I166T/I218V/L300P/L318F/N151K/N90K/P208A/P217A/Q86G/Q94H/R138H/R169H/T345S)
Experiment: MHC binding assay: UV-ligand exchange with β2m ELISA (peptide exchange yield)
Settings: MHC class I binding score; binding to HLA-A*02:01 ranged by peptide exchange yield (UV-ligand exchange, β2m ELISA)
From the text: Candidate peptides for T cell based therapies according to the present invention were further tested for their MHC binding capacity (affinity). The individual peptide-MHC complexes were produced by UV-ligand exchange, where a UV-sensitive peptide is cleaved upon UV-irradiation, and exchanged with the peptide of interest as analyzed. Only peptide candidates that can effectively bind and stabilize the peptide-receptive MHC molecules prevent dissociation of the MHC complexes. To determine the yield of the exchange reaction, an ELISA was performed based on the detection of the light chain (β2m) of stabilized MHC complexes. The assay was performed as generally described in Rodenko et al. (Rodenko et al., 2006).
96 well MAXISorp plates (NUNC) were coated over night with 2 ug/ml streptavidin in PBS at room temperature, washed 4× and blocked for 1 h at 37° C. in 2% BSA containing blocking buffer. Refolded HLA-A*02:01/MLA-001 monomers served as standards, covering the range of 15-500 ng/ml. Peptide-MHC monomers of the UV-exchange reaction were diluted 100 fold in blocking buffer. Samples were incubated for 1 h at 37° C., washed four times, incubated with 2 ug/ml HRP conjugated anti-β2m for 1 h at 37° C., washed again and detected with TMB solution that is stopped with […]. Absorption was measured at 450 nm. Candidate peptides that show a high exchange yield (preferably higher than 50%, most preferred higher than 75%) are generally preferred for a generation and production of antibodies or fragments thereof, and/or T cell receptors or fragments thereof, as they show sufficient avidity to the MHC molecules and prevent dissociation of the MHC complexes.

Peptide Exchange	Substance
″+++″ (≥50 = +++)	280 (YTLDSLYWSV; listed as Homo sapiens) [compound 280]
″+++″ (≥50 = +++)	262 (SLWNAGTSV; listed as Homo sapiens) [compound 262]
″+++″ (≥50 = +++)	239 (ILAGEMLSV; listed as Homo sapiens) [compound 239]
″+++″ (≥50 = +++)	367 (NLWSLVAKV; listed as Homo sapiens) [compound 367]
″+++″ (≥50 = +++)	288 (GLAESTGLLAV; listed as Homo sapiens) [compound 288]
″++++″ (≥75% = ++++)	340 (KLLEEICNL; listed as Homo sapiens) [compound 340]
″+++″ (≥50 = +++)	357 (FLIQEIKTL; listed as Homo sapiens) [compound 357]
″+++″ (≥50 = +++)	169 (TLLLGLTEV; listed as Homo sapiens) [compound 169]
″+++″ (≥50 = +++)	181 (VLLSIPFVSV; listed as Homo sapiens) [compound 181]
″++″ (≥20% = ++)	233 (GIIDINVRL; listed as Homo sapiens) [compound 233]
″+++″ (≥50 = +++)	241 (ILGDILLKV; listed as Homo sapiens) [compound 241]
″+++″ (≥50 = +++)	303 (ILSQPTPSL; listed as Homo sapiens) [compound 303]
″+++″ (≥50 = +++)	225 (ILQERELLPV; listed as Homo sapiens) [compound 225]
″++++″ (≥75% = ++++)	199 (YLVELSSLL; listed as Homo sapiens) [compound 199]
″+++″ (≥50 = +++)	316 (MLLEHGITL; listed as Homo sapiens) [compound 316]
″+++″ (≥50 = +++)	278 (YLDDLLPKL; listed as Homo sapiens) [compound 278]
″+++″ (≥50 = +++)	228 (FLGGLSPGV; listed as Homo sapiens) [compound 228]
″+++″ (≥50 = +++)	258 (RLDYITAEI; listed as Homo sapiens) [compound 258]
″++″ (≥20% = ++)	353 (ATPMPTPSV; listed as Homo sapiens) [compound 353]
″+++″ (≥50 = +++)	348 (ALAKPPVVSV; listed as Homo sapiens) [compound 348]

Peptide Exchange	Substance
″+++″ (≥50 = +++)	207 (IIADLDTTIMFA; listed as Homo sapiens) [compound 207]
″+++″ (≥50 = +++)	250 (LLVQEPDGLMV; listed as Homo sapiens) [compound 250]
″+++″ (≥50 = +++)	369 (RLLDLENSLLGL; listed as Homo sapiens) [compound 369]
″++″ (≥20% = ++)	269 (TLTDEQFLV; listed as Homo sapiens) [compound 269]
″+++″ (≥50 = +++)	214 (RLQELTEKL; listed as Homo sapiens) [compound 214]
″+++″ (≥50 = +++)	345 (YLIEPDVELQRI; listed as Homo sapiens) [compound 345]
″+++″ (≥50 = +++)	259 (RLLDEQFAVL; listed as Homo sapiens) [compound 259]
″++++″ (≥75% = ++++)	326 (VLAFLVHEL; listed as Homo sapiens) [compound 326]
″++″ (≥20% = ++)	266 (TLLDQLDTQL; listed as Homo sapiens) [compound 266]
″+++″ (≥50 = +++)	376 (VLYNQRVEEI; listed as Homo sapiens) [compound 376]
″+++″ (≥50 = +++)	217 (ALDEPPYLTV; listed as Homo sapiens) [compound 217]
″+″ (≥10% = +)	304 (LAIVPVNTL; listed as Homo sapiens) [compound 304]
″+++″ (≥50 = +++)	170 (TLTFRVETV; listed as Homo sapiens) [compound 170]
″++″ (≥20% = ++)	284 (LLSAAEPVPA; listed as Homo sapiens) [compound 284]
″+++″ (≥50 = +++)	236 (GLLESGRHYL; listed as Homo sapiens) [compound 236]
″+++″ (≥50 = +++)	302 (ILQDLTFVHL; listed as Homo sapiens) [compound 302]
″+++″ (≥50 = +++)	325 (TLENGVPCV; listed as Homo sapiens) [compound 325]
″+++″ (≥50 = +++)	374 (VLSVITEEL; listed as Homo sapiens) [compound 374]
″+″ (≥10% = +)	221 (ALVSTIIMV; listed as Homo sapiens) [compound 221]
″++++″ (≥75% = ++++)	285 (GVATAGCVNEV; listed as Homo sapiens) [compound 285]

Further lines, the substance ahead of its results:

Substance	Peptide Exchange
24 (AMAGDVVYA; listed as Homo sapiens) [compound 24]	″+++″ (≥50 = +++)
120 (AIDAALTSV; listed as Homo sapiens) [compound 120]	″+++″ (≥50 = +++)
3 (VIAELPPKV; listed as Homo sapiens) [compound 3]	″++″ (≥20% = ++)
138 (NLLDIDAPVTV; listed as Homo sapiens) [compound 138]	″+++″ (≥50 = +++)
34 (YLPYIFPNI; listed as Homo sapiens) [compound 34]	″+++″ (≥50 = +++)
91 (ILDLNTYNV; listed as Homo sapiens) [compound 91]	″+++″ (≥50 = +++)
131 (LQALEVLKI; listed as Homo sapiens) [compound 131]	″+″ (≥10% = +)
16 (ALPGGAAVAAV; listed as Homo sapiens) [compound 16]	″++++″ (≥75% = ++++)
140 (QIAELPATSV; listed as Homo sapiens) [compound 140]	″+++″ (≥50 = +++)
99 (ILIFHSVAL; listed as Homo sapiens) [compound 99]	″+++″ (≥50 = +++)
58 (YIQQGIFSV; listed as Homo sapiens) [compound 58]	″+++″ (≥50 = +++)
136 (NLDKLWTLV; listed as Homo sapiens) [compound 136]	″++″ (≥20% = ++)
63 (SLAHVAGCEL; listed as Homo sapiens) [compound 63]	″+++″ (≥50 = +++)
130 (LLVLIPVYL; listed as Homo sapiens) [compound 130]	″+″ (≥10% = +)
133 (YLLSGDISEA; listed as Homo sapiens) [compound 133]	″+++″ (≥50 = +++)
109 (KLWEGLTELV; listed as Homo sapiens) [compound 109]	″+++″ (≥50 = +++)

Substance	Peptide Exchange
123 (LLLAEAELLTL; listed as Homo sapiens) [compound 123]	″++″ (≥20% = ++)
125 (LLLEIGEVGKLFV; listed as Homo sapiens) [compound 125]	″+++″ (≥50 = +++)
147 (SILETVATL; listed as Homo sapiens) [compound 147]	″+++″ (≥50 = +++)
167 (TLDTSKLYV; listed as Homo sapiens) [compound 167]	″+++″ (≥50 = +++)
61 (FVYFIVREV; listed as Homo sapiens) [compound 61]	″+++″ (≥50 = +++)
116 (LLIGATMQV; listed as Homo sapiens) [compound 116]	″+++″ (≥50 = +++)
108 (VIYTLIHYI; listed as Homo sapiens) [compound 108]	″+++″ (≥50 = +++)
122 (LLIPVVPGV; listed as Homo sapiens) [compound 122]	″+++″ (≥50 = +++)
134 (MLLEHGITLV; listed as Homo sapiens) [compound 134]	″++++″ (≥75% = ++++)
66 (SLAGGLDDMKA; listed as Homo sapiens) [compound 66]	″+++″ (≥50 = +++)
121 (RLYEITIEV; listed as Homo sapiens) [compound 121]	″++++″ (≥75% = ++++)
155 (SLMLEVPAL; listed as Homo sapiens) [compound 155]	″+++″ (≥50 = +++)
27 (AVLGLVWLL; listed as Homo sapiens) [compound 27]	″+++″ (≥50 = +++)
65 (GLDDMKANL; listed as Homo sapiens) [compound 65]	″++″ (≥20% = ++)
104 (KLILLDTPLFL; listed as Homo sapiens) [compound 104]	″+++″ (≥50 = +++)
